Source: patent publication US20240002495A1 (MITSUBISHI TANABE PHARMA, published 2024)

T1: biotinylated 6His tag-AviTag-linked mature human IL-33 (residues 112 to 270) (human, UniProt O95760 112-270, biotin on the AviTag portion (BirA))
T1 construct: made in E. coli; also called biotinylated human IL-33 protein
T1 sequence: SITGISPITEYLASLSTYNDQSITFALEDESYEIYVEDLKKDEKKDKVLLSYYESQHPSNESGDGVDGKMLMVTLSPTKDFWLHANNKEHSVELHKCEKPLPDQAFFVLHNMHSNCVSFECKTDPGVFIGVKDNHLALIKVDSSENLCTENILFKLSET

T2: 6His-AviTag-linked cynomolgus monkey IL-33 (residues 112 to 269) (cynomolgus monkey, UniProt O95760 112-269 (human entry), biotin on the AviTag portion (BirA) in the SPR of Example 7; used without biotinylation in Example 10)
T2 construct: GenBank EHH57404 printed; also called cynomolgus monkey IL-33 protein; mature cynomolgus monkey IL-33
T2 chain: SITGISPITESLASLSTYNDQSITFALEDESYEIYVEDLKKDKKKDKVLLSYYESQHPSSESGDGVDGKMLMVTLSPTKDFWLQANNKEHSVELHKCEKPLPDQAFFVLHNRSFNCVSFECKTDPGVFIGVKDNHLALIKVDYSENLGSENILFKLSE


Key:
[1] = target: T1, biotinylated 6His tag-AviTag-linked …; test: SPR, IL-33 on chip, Fab supernatant as analyte
Description: (§1) The library after the enrichment was used to construct a library of Escherichia coli secreting and expressing Fab. The culture supernatants of several hundreds of clones of Escherichia coli were subjected to measurement of dissociation rate constant (koff) by surface plasmon resonance (SPR) (ProteOn XPR36, available from Bio-Rad Laboratories, Inc.). The biotinylated human IL-33 protein (4 μg/mL) and cynomolgus monkey IL-33 protein (4 μg/mL) were loaded as ligands on a sensor chip (NLC sensor chip, available from Bio-Rad Laboratories, Inc.), to immobilize the human IL-33 protein at an amount equivalent to 1300 to 1600 RU, and the cynomolgus monkeyIL-33 protein at an amount equivalent to 1100 to 1500 RU. The culture supernatant of Escherichia coli was then loaded thereon as analyte to obtain a sensorgram with association phase of one minute and dissociation phase of 10 to 30 minutes. The sensorgram was subjected to interspot correction and blank correction using an SPR data analysis program (ProteOn Manager v3.1.0, available from Bio-Rad Laboratories, Inc.), and then values of koff were determined by off-rate analysis of Langmuir model.

[2] = target: T2, 6His-AviTag-linked cynomolgus monkey …; test: SPR, IL-33 on chip, Fab supernatant as analyte
Description: as §1

Binder	Human IL-33 Binding Amount (RU) [1] [RU]	koff [1] [s⁻¹]	Cynomolgus Monkey IL-33 Binding Amount (RU) [2] [RU]	koff [2] [s⁻¹]
A00-0070 (Fab) (Fab, V domains shown, parental clone as Fab; also called V29; parental clone (Fab)) VH: EVQLLESGGGLVQPGGSLRLSCAASGFTFSDYYMNWVRQAPGKGLEWVSSISSSSSYIYYADSVKGRFTISRDNSKNTLYLQMNSLRAEDTAVYYCARDIGGMDVWGQGTLVTVSS VL: QSVLTQPPSASGTPGQRVTISCTGSSSNIGAVYNVHWYQQLPGTAPKLLIYRNNQRPSGVPDRFSGSKSGTSASLAISGLRSEDEADYYCQSYDSSRWVFGGGTKLTVL	571	0.00427	270	0.00522
A12-1H04 (Fab) (Fab, V domains shown, Fab secreted by E. coli, tested as culture supernatant; also called V3) VH: EVQLLESGGGLVQPGGSLRLSCAASGFTFSDYYMDWVRQAPGKGLEWVSSISRYSGYVYYADSVKGRFTISRDNSKNTLYLQMNSLRAEDTAVYYCARDIGGMDVWGQGTLVTVSS VL: QSVLTQPPSASGTPGQRVTISCTGSSSNIGAVYNVHWYQQLPGTAPKLLIYRNNQRPSGVPDRFSGSKSGTSASLAISGLRSEDEADYYCQSYDSSRWVFGGGTKLTVL	94	1.94e-05	131	4.83e-05
A12-1H08 (Fab) (Fab, V domains shown, Fab secreted by E. coli, tested as culture supernatant; also called V4) VH: EVQLLESGGGLVQPGGSLRLSCAASGFTFSDYYMDWVRQAPGKGLEWVSSISRASSYVYYADSVKGRFTISRDNSKNTLYLQMNSLRAEDTAVYYCARDIGGMDVWGQGTLVTVSS VL: QSVLTQPPSASGTPGQRVTISCTGSSSNIGAVYNVHWYQQLPGTAPKLLIYRNNQRPSGVPDRFSGSKSGTSASLAISGLRSEDEADYYCQSYDSSRWVFGGGTKLTVL	77	1e-05	102	7.51e-05
A13-1F05 (Fab) (Fab, V domains shown, Fab secreted by E. coli, tested as culture supernatant; also called V5) VH: EVQLLESGGGLVQPGGSLRLSCAASGFTFSDYYMNWVRQAPGKGLEWVSSISRYSGYIYYADSVKGRFTISRDNSKNTLYLQMNSLRAEDTAVYYCARDIGGMDVWGQGTLVTVSS VL: QSVLTQPPSASGTPGQRVTISCTGSSSNIGAVYNVHWYQQLPGTAPKLLIYRNNQRPSGVPDRFSGSKSGTSASLAISGLRSEDEADYYCQSYDSSRWVFGGGTKLTVL	127	1.32e-05	171	5.79e-05
A10-1C04 (Fab) (Fab, V domains shown, Fab secreted by E. coli, tested as culture supernatant; also called V1) VH: EVQLLESGGGLVQPGGSLRLSCAASGFTFSDYYMNWVRQAPGKGLEWVSSISRYSSYIYYADSVKGRFTISRDNSKNTLYLQMNSLRAEDTAVYYCARDIGGMDVWGQGTLVTVSS VL: QSVLTQPPSASGTPGQRVTISCTGSSSNIGAVYDVHWYQQLPGTAPKLLIYRNNQRPSGVPDRFSGSKSGTSASLAISGLRSEDEADYYCQTYDSSRWVFGGGTKLTVL	26	≤ 1e-05	20	0.000165
A00-0036 (Fab) (Fab, V domains shown, parental clone as Fab; also called V30; parental clone (Fab)) VH: EVQLLESGGGLVQPGGSLRLSCAASGFTFSNYYMHWVRQAPGKGLEWVSSISSSSSYIYYADSVKGRFTISRDNSKNTLYLQMNSLRAEDTAVYYCARLGTRHDAFDIWGQGTLVTVSS VL: QSVLTQPPSASGTPGQRVTISCSGSSSNIGNNAVNWYQQLPGTAPKLLIYASNMRRLGVPDRFSGSKSGTSASLAISGLRSEDEADYYCAAWDDSQKAVVFGGGTKLTVL	78	0.0152	59	0.0347
A25-2C02 (Fab) (Fab, V domains shown, Fab secreted by E. coli, tested as culture supernatant; also called V15) VH: EVQLLESGGGLVQPGGSLRLSCAASGFTFSNYYMHWVRQAPGKGLEWVSSISARSSYIYYADSVKGRFTISRDNSKNTLYLQMNSLRAEDTAVYYCARLATRNNAFDIWGQGTLVTVSS VL: QSVLTQPPSASGTPGQRVTISCSGSSSNIGRNAVNWYQQLPGTAPKLLIYASNMRVSGVPDRFSGSKSGTSASLAISGLRSEDEADYYCWAWDDSQKVGVFGGGTKLTVL	930	1e-05	839	1e-05
A25-2C06 (Fab) (Fab, V domains shown, Fab secreted by E. coli, tested as culture supernatant; also called V12) VH: EVQLLESGGGLVQPGGSLRLSCAASGFTFSNYYMHWVRQAPGKGLEWVSSISARSSYIYYADSVKGRFTISRDNSKNTLYLQMNSLRAEDTAVYYCARLATRNNAFDIWGQGTLVTVSS VL: QSVLTQPPSASGTPGQRVTISCSGSSSNIGRNAVNWYQQLPGTAPKLLIYASNMRVIGVPDRFSGSKSGTSASLAISGLRSEDEADYYCGAWDDSQKRYVFGGGTKLTVL	480	1.36e-05	501	1.59e-05
A25-2C07 (Fab) (Fab, V domains shown, Fab secreted by E. coli, tested as culture supernatant; also called V13) VH: EVQLLESGGGLVQPGGSLRLSCAASGFTFSNYYMHWVRQAPGKGLEWVSSISARSSYIYYADSVKGRFTISRDNSKNTLYLQMNSLRAEDTAVYYCARLATRNNAFDIWGQGTLVTVSS VL: QSVLTQPPSASGTPGQRVTISCSGSSSNIGNNAVNWYQQLPGTAPKLLIYASNMRGSGVPDRFSGSKSGTSASLAISGLRSEDEADYYCAAWDDSQKGQVFGGGTKLTVL	334	3.41e-05	330	7.37e-05
A23-1A05 (Fab) (Fab, V domains shown, Fab secreted by E. coli, tested as culture supernatant; also called V8) VH: EVQLLESGGGLVQPGGSLRLSCAASGFTFSNYYMHWVRQAPGKGLEWVSSISARSRYHYYADSVKGRFTISRDNSKNTLYLQMNSLRAEDTAVYYCARLATRHNAFDIWGQGTLVTVSS VL: QSVLTQPPSASGTPGQRVTISCSGSSSNIGNNAVSWYQQLPGTAPKLLIYASNMRVIGVPDRFSGSKSGTSASLAISGLRSEDEADYYCGAWDDSQKALVFGGGTKLTVL	52	1.58e-05	54	2.61e-05

More lines, now with the values ahead:

Human IL-33 Binding Amount (RU) [1] [RU]	koff [1] [s⁻¹]	Cynomolgus Monkey IL-33 Binding Amount (RU) [2] [RU]	koff [2] [s⁻¹]	Binder
112	1e-05	151	3.48e-05	A13-1F07 (Fab) (Fab, V domains shown, Fab secreted by E. coli, tested as culture supernatant; also called V6) VH: EVQLLESGGGLVQPGGSLRLSCAASGFTFSVYYMNWVRQAPGKGLEWVSSISRYSGYVYYADSVKGRFTISRDNSKNTLYLQMNSLRAEDTAVYYCARDIGGMDVWGQGTLVTVSS VL: QSVLTQPPSASGTPGQRVTISCTGSSSNIGAVYNVHWYQQLPGTAPKLLIYRNNQRPSGVPDRFSGSKSGTSASLAISGLRSEDEADYYCQSYDSRRWVFGGGTKLTVL
414	2.19e-05	512	5.58e-05	A12-1E04 (Fab) (Fab, V domains shown, Fab secreted by E. coli, tested as culture supernatant; also called V2) VH: EVQLLESGGGLVQPGGSLRLSCAASGFTFSDYYMNWVRQAPGKGLEWVSSISRYSGYVYYADSVKGRFTISRDNSKNTLYLQMNSLRAEDTAVYYCARDIGGMDVWGQGTLVTVSS VL: QSVLTQPPSASGTPGQRVTISCTGSSSNIGAVYDVHWYQQLPGTAPKLLIYRNNQRPSGVPDRFSGSKSGTSASLAISGLRSEDEADYYCQSYDSSRWVFGGGTKLTVL
59	1e-05	80	5.45e-05	A13-1G05 (Fab) (Fab, V domains shown, Fab secreted by E. coli, tested as culture supernatant; also called V7) VH: EVQLLESGGGLVQPGGSLRLSCAASGFTFSDYYVNWVRQAPGKGLEWVSSISRYSGYVYYADSVKGRFTISRDNSKNTLYLQMNSLRAEDTAVYYCARDIGGMDVWGQGTLVTVSS VL: QSVLTQPPSASGTPGQRVTISCTGSSSNIGAVYNVHWYQQLPGTAPKLLIYRNNQRPSGVPDRFSGSKSGTSASLAISGLRSEDEADYYCQSYDSSRWVFGGGTKLTVL
256	1e-05	237	1e-05	A25-2B02 (Fab) (Fab, V domains shown, Fab secreted by E. coli, tested as culture supernatant; also called V10) VH: EVQLLESGGGLVQPGGSLRLSCAASGFTFSNYYMHWVRQAPGKGLEWVSSISARSSYIYYADSVKGRFTISRDNSKNTLYLQMNSLRAEDTAVYYCARLATRNNAFDIWGQGTLVTVSS VL: QSVLTQPPSASGTPGQRVTISCSGSSSNIGRNAVNWYQQLPGTAPKLLIYASNMRVLGVPDRFSGSKSGTSASLAISGLRSEDEADYYCWAWDDSQKAVVFGGGTKLTVL
950	1e-05	832	1e-05	A25-2D01 (Fab) (Fab, V domains shown, Fab secreted by E. coli, tested as culture supernatant; also called V9) VH: EVQLLESGGGLVQPGGSLRLSCAASGFTFSNYYMHWVRQAPGKGLEWVSSISARSSYIYYADSVKGRFTISRDNSKNTLYLQMNSLRAEDTAVYYCARLATRNNAFDIWGQGTLVTVSS VL: QSVLTQPPSASGTPGQRVTISCSGSSSNIGRNAVNWYQQLPGTAPKLLIYASNMRVIGVPDRFSGSKSGTSASLAISGLRSEDEADYYCAAWDDSQKAWVFGGGTKLTVL
